# According to the DeepSol protein solubility set:
# Experiment: soluble on expression in E. coli; label from the status in PepcDB or PDB records
row,Sequence,soluble on expression in E. coli
1,MDDIIQQLFKEVERPQLTVNEQALQQYLYREIVRLTLLVEPTISKPQIIGLLSALVKKARHYVNADNQAECIQQLLDLVYQEWRFHCDYQEYFYTDNLLLHRVIRSHRGMPLSIGAIVLYLAAKLQLPIYPVNFPTQLILRAEITESSGKKTVRFINPWDGQFLPLELLLKWLEGEVGYGVELSPELLRRADPAELLERVETVFKMVLTREGKYEQTLRLIEYRLAENPDDPYEIRDRGMVLASMDCYQAAYDDLSYFIDQCPDDPSAAILKSEVKGLEQKSKQNQVHLEHHHHHH,soluble
2,IPLARTVRCNCIHIDDGPVRMRAIGKLEIIPASLSCPRVEIIATMKKNDEQRCLNPESKTIKNLMKAF,soluble
3,MLDLFADEAPWQEPLAPGAVVLRRFAFRAAQSLLDDIGFVASQSPFRQMVTPGGYTMSVAMTNCGALGWTTDRHGYCYAVRDPLTDKPWPALPLSFASVCRQAAIAAGYASFQPDACLINRYAPGAKLSLHQDKDEPDLRAPIVSVSLGVPAVFQFGGLRRSDPIQRILLEHGDIVVWGGESRLFYHGIQPLKAGFHPMTGEFRYNLTFRQAAEKELEHHHHHH,soluble
4,MSLQVSKFKNLPKIELHLHLDCSLSYDVVKKIDPTVDIKHYKSSFQAGESCSSLKDYLKCADNAIELMQTKENLQFIVEDLFKQLHDDNVIYAEIRFAPLLHCEGDLNAKKVVDIICMSALIQSKKYNIDYGLILCTLRHYSEDESLKTVKLVKEFSEKGVVGFDIAADEAGYPIDNHIKAFTYAKNNNLNITAHAGEAKGSESIWETINKLYAKRIGHGVRCLEDKKLVKFLSDNNYHLEICLTSNIKTNTFDLFTDHPINEIYDSSISLSLNTDGRAISNTSLSKEYAIAHSELNWSMKKIIQSNLNAIEHAFTTNEKKEKLRKHLKSFSEGHHHHHH,soluble
5,GPGSMSVKETTIALPLMVESVLDVDSGITATSAISVLDDRAVLIGTSEGSILLCAPVNESAHVLTPYSDTTLHCGAIYDLAVSSDHLVATAGHDAVSCVFPLHTFFRASGVRQCRRITGHTVPVVAVRFLSDGTSLVTLGADGRVLVAEVHSGHVLASLLCGFAATCLACSMDETQLFVGGRSLASIDLHHAMRPMSLQSVAAAASGPDPWASLSSAAAAPGAAASLRTPAWLRLYAWEEKSEATAGASRRQFRAPPHTFIRSLSVDSRDGALTATFARHAGGTSSVEVCGSARWAATGGRTASEATWAPQALQGVSAALRYPMSRDRSTGVATGKLRVRCRVKASARPSAKQTPAPPGSFASTAAALWNGRWYASPFELAGGTPRLTASHGLAETSVFTAEKSDQYGFPSAGPRTPAEELLIAQAQCDELQRECDALVFQIKSFLARKAPIR,not soluble
6,MCIIKPMDDVVKFIHEVGSLKLTPRSGWLKLGIRLPESVAEHSFRAAIIAFILALKSGESVEKACKAATAALFHDLHEARTMDLHKIARRYVSCDEEGAREEQLSWMESKPDFSDVEVYVSDADKLELAFQGVEYSQQVSYAIRFAENVELKTDAAKEIYRVLMERKNPVWWR,soluble
7,MAHHHHHHMLAGLLRGIRAATAPQRSRRRFLPRMRQRSSFSAVSSAAMFKNTLTTQRAQKGDYGFNVFHNSNPQHGGSYARHERRMREDEVEDFLKSVKHWRPLHEDVADGDLVDDAQSSSSTSAPAAGPPMPRLARMGEEAIMRTFQFETFREAYLFMGRVWAFCYGSDKYPHVTWEGTALTVYLYSSSFRGLSKREARVAAFLNDQYNMLRKSKWQQRRIVDGIVRQSAVEELLGEEVAAHLAHRETLRTAPLQEVQDGPRSWRSAIGSPLRSPNSGSDGAGSSMGVRES,not soluble
8,MAHHHHHHMSPVLVPTACEDWSLNIDDESAKRFWWNNTYSITLWEETLNIEQQAEKITDGDVWSKFIDLQLRCAFKICSICHSPEGNADMKICCYCGNTVHENCSEPAAPEQIMWKPANLAYVEHMRACFQCQAVNYKEPLAPQSPSEWDNARRAAKRALTISDEYPPATVERIQKLLQRAETTSNDAVLLSELKSLVQSYFQSPQSLQFLRKERVASKGGGIGVVAARKIPAFSIIGVYPGYLDFMSGEQAKCGRPVPKYALMEYNCANYFNEVFVELQTTFTPFINEPNVDEKSNCAWIQEPHRKNGRLSVICVRDIQEGEELTIGYGPIYPRTYPYCYDAYACHQIEGHTTHPCYSLWHWPTLQEADARFVCHIGYIERDDCYVLWKNET,soluble
9,MDWSHYRFRSLWALPAPPARVYAALERVEDYPRWWPQVREVTRLDEDCGVIRIRSLLPYDMTFTARDVRHDTAAGILEITMTGDIDGWARWTVTAGGPGTLARYDQEVDVRKPLLRRFAVPGRPVFRANHALMMRAGQRGLLAHLDGLEHHHHHH,not soluble
10,MGSDKIHHHHHHMRMTTDKKQGKSRELDLFITDLNGNLRGKRLPASGLKKLRKEGLKLPLSVVGFDFWGADVLDNGLVFETGDSDGVCMPVSQEPIPVPWSEAPRDQMLAMMFNPDGTPFGADPRQVLNRMVDRFSAKGLTPVLATELEFYLMDAESESVQRPIPPALADGKGRRLANAEGYSVEEMDGFEAFFADIREACQGQGIGADTIIAEMGPGQFEVNLNHVADPLNAGDQAILFKRLVRGVSRRHGYAATFMAKPYVEESGNGFHTHFSLLDRDGNNVFDDGTEQGSDLLRHAIAGMMQLMPESMLVFAPHLNSYRRFMPGAHAPTHASWGYENRTVALRVPESPNLARRIEHRVAGADANPYLVLASILAGALHGMENALEPDAPVEGDAYAEESPRYPLPCEWQDAIARFEQSEILREYLGEEFVRVYAQAKRQERRRLNERISDVEYEAYLGLL,not soluble
11,MLGACVEKPSTLERVKEDGVLRVVTRNSPATYFQDRNGETGFEYELVKRFADDLGVELKIETADNLDDLFDQLGQPKGPVLAAAGLVSSEQRKQQVRFSHPYLEVTPQVIYRNGRSRPTTAQDLVGKHIMVLKGSTHAEQLAELKLKYPGIEYEESDAVEVVDLLRMVDEGQIDLTLVDSNELAMNQVYFPNVRVAFDLGDARSQSWAVAAGDDNSLLNEINSFLDKVEKNGTLQRLKDRYYGHVDVLGYVGAYTFAQHLQQRLPKYEKHFKASAKQEKLDWRLLAAVGYQESMWQAEVTSKTGVRGLMMLTQNTAQAMGVSNRLDPKQSISGGAKYLAYIKEQLDDKIEEPDRTWFALAAYNVGTGHLDDARKLAEKEGLNPNKWLDVKKMLPRLSQKQWYSKTRYGYARGGEPVHFVANIRRYYDILTWVTQPQLEGDQVAEGNLHVPGVNKTKPPEENPPLLEHHHHHH,soluble
12,MPKNTPIIRSLLDTDLYKFTMLQVVLHQFPAAHGEYEFRCRNHPDTPLTQLKQQLETQLDLLCELRFSQDELDYLRGLRFIKSDYVDYLELFHLQRRFISVSEEGEQLAIRIKGPMVQAMFFEIFVLAIVNELYFRPLDSKAVREEGRRRLEAKLAELERFQREEAPGQRFPLLIADFGTRRRFSRDWQAHVVERLNHALPQVFRGTSNVYLARKLGITPIGTMAHEFFQAFQALGVRLRDFQKAALESWVQEYRGDLGIALTDVVGMDAFLADFDLYFAKLFDGLRHDSGDPYIWGEKAIAHYRKLRIDPATKMLTFSDGLSVDSALQLQRHFSPHIQVSFGIGTHFTNDMGLEPLQIVLKLVSCNGQPVAKLSDSPGKTMCSDETFLAYLRQVFKVPALALEHHHHHH,soluble
13,MIVETMTYQEIADEFKKDWERSIRHKITDCFGMANKYRRYILKEGKTDKWIRFKPIEFTSPRGNNCVIQFVSKGWADYKRNGLIFVLYMYYYKSEGLYAVMIAGDNFDEFSFYTPHLFDRYRERKLKDISKPKLQTMFDFFKTNATSRFNRVNNDKYANSIFSVCPNGVTLGSEISDKIIENRTYITFEMLKSDQVQDEEKLGTALKAYLDKQL,not soluble
14,MASRRKRRKVNEESEIPCSPVVIFAHGAGAPSSSDWMIRWKEMLKKTLEAVEVVTFDYPYLADGKKRVAPKAEKLIEFHLNVVKETAAKFPGHPLILVGKSMGSRVSCMVSAVNEDVTVSAVICLGYPLKGAKGAIRDETLLEMGVPVMFVQGSKDPMCPLNKLEAVCNKMKAVTEVHVIDGGDHSFKIGKKHLETKELTQEEVEDVAMKAIAAFVSKSLAQSS,soluble
15,ATQFTASILSLYNSEQMLQKTDPMSVISSAMVAATLDLPIDKNLGYAWIVPYGGKAQFQLGYKGYIQLALRTGQYKSINCIPIHEGELQKWNPLTEEIEIDFEKRESDAVIGYAAYFELINGFRKTVYWTKAQVEKHKKKFSKSDFGWKNDWDAMALKTVLKAVLSKWGILSVEMQKAVIEEDETRERIDITNEADSSEIIDSE,not soluble
16,QLIAATGCPTGIAHTYMAQEALEQAAKRKGITIKVETHGQIGIENELTPAEIQGAEAVIIAADKDVQAERFAGKRIIDVPVSVGIKEADRLIEEALAGKGSIA,not soluble
17,MSAGVQLPLDLPWRPALGREHFLVAACNASAVALVEAWPHWPAPAACIHGPTGAGKTHLAQVFATRAAAVVLDPAVILGTDPLTLFEGGRAAVIEDADRAGLPEATLFHLLNAARQRGGSLLLTALSPPARWGVHLADLRSRLAALPAEGLCEPDDELMAAVLLKLFSDRGLDVAPGAIGYLLPRMERSFAAARDLVVHADALALREGRAVTVPLLRQLLATPDRADRLEHHHHHH,not soluble
18,MSLELSQKKWKSFKISEIFRIESCKCGNASLLEDGDDLFYRGAKKNDNGVIRRVKRIDSLVSKGNCIMFICDGDGSCGYTNYISDDFIGSTTTSVGYNENLNVYIGTFITTILDMHKYKYSHSRKYRNSLLNEILILPINNDGIPDWKWIEEYMKSLSGSINTQIYDIIDTADGDRNIVKFFINKIEASDFKLWLQDNANMDVNNQMSLKDVKWKGFKLSELFNIERGCRLKKSNRITGNTLLITAGKENHGIAMYVEPPMNSEGNLINKIYKDRLTIDMFCNSFYQSENFICDDNILVLIEKQKMTKNIKHFIATILSMDIYKFSFTRQYRQKDFNKHIIMLPINDKGNLDWEWIEEYMKSLPYSDKETRLFVNTIEGHHHHHH,soluble
19,MSVDPNLLTPYKNTGAANASLRQISEDAFYVVNEVVMKRLGHVPILKGDFHLLPAKVQRFIAEKAELMRPRGIFICDGSQHEADELIDKLIERGMLSKLEAYENNYICRTDPKDVARVESKTWMVTKNKYDTVTHTKEGVEPIMGHWLAPEDLATELDSRFPGCMAGRIMYVIPFSMGPVGGPLSKIGIQLTDSNYVVLSMRIMTRVNNDVWDALGNQDFVRCIHSVGLPRPVKQRVINHWPCNPERVLIAHRPPEREIWSFGSGYGGNSLLGKKCFALRIASNIAKDEGWMAEHMLIMGVTRPCGREHFIAAAFPSACGKTNLAMLEPTLPGWKVRCVGDDIAWMKFGEDGRLYAINPEAGFFGVAPGTSNKTNPMAVATFQKNSIFTNVAETANGEYFWEGLEDEIADKNVDITTWLGEKWHIGEPGVAAHPNSRFAAPANQCPIIHPDWESPQGVPIEAIIFGGRRPQGVPLIYETNSWEHGVFTGSCLKSEATAAAEFTGKTVMHDPMAMRPFMGYNFGKYLQHWLDLKTDSRKMPKIYHVNWFRKDSNNKFLWPGFGDNIRVIDWIIRRLDGEQEIGVETPIGTVPAKGSINLEGLGEVNWDELMSVPADYWKQDAQEIRKFLDEQVGEDLPEPVRAEMDAQEKRVQTL,not soluble
20,MNESVDTDEATTPLVSAIIPTYGRNERLSSAIQSVLEQTYDNIELFVVDDASPTPVRETLDSFDPTVENSFRILRHDENQGANAARNTGIRASDGRYVAFLDDDDQWDETKITKQVQAFQESDSETGVVYTGVRKDGPEGTTVSTPVASGDVMKDLLTGTNFGQFSSVMVDTTVIETAGLPDERLPAWQDREWFFRLAQHTHFRPVRETLTYRQTGLPGSITKKYEQKRDVAYPMLISKHDWVAAEYGIYYERMFKATMRRSLARSAVRADRYKEARKYFLLSALANPLYWPVYPHLFASLGGKWSYESIASLRQQVTNGPASGT,not soluble
